1 substance from paper doi:10.1101/2021.03.25.436948 can be followed below.

The target of this experiment is Drosophila melanogaster GNPTAB homolog, luminal portion (residues 50-630) (Drosophila melanogaster). As to the kind of experiment: cryo-EM structure.

The term stoichiometry N denotes a count of units in the complex or per binding partner. “Drosophila melanogaster GNPTAB homolog, luminal portion (residues 50-630) (domain or fragment)” showed a stoichiometry N of 2.
